From patent US20150018665 come the findings set out here.

Data set [1] has as its system Caspase-3 sensor, StrepII-GFP-(linker)-(protease site)-CGRP-Gly fusion with GGSG linker and DEVD protease site, uncleaved.
The subject of data set [2] is TEV protease sensor, StrepII-GFP-(linker)-(protease site)-CGRP-Gly fusion with GGSG linker and ENLYFQG protease site, uncleaved.
Data set [3] concerns Enterokinase sensor, StrepII-GFP-(linker)-(protease site)-CGRP-Gly fusion with GGSG linker and DDDDK protease site, uncleaved.

caspase-3: in data set [1], the “proteolytic cleavage of the sensor (MALDI spectrum)” value was “MALDI spectrum showing cleavage of caspase sensor” and the “proteolytic cleavage of the sensor, read by CGRP receptor activation” value (“proteolytic cleavage of the sensor, read” for short) is reported as “after being cleaved by their respective protease”.
Take Tobacco Etch Virus (TEV) protease: the “proteolytic cleavage of the sensor, read” value in data set [2] is “after being cleaved by their respective protease”.
Consider enterokinase, for which the “proteolytic cleavage of the sensor, read” value in data set [3] was “after being cleaved by their respective protease”.
